For test [1], the target named is Recombinant full-length WAVE2 tagged with GST at its COOH terminus (UniProt Q9Y6W5). Description: dual polarization interferometry.
In test [2] the target is FLAG-tagged WAVE2 stably expressed in A431 cells (UniProt Q9Y6W5). The experiment in a line: co-IP.

pKd: −log10 of the molar value.

In general, pKd refers to the Kd on a negative log10 scale, so that one unit is a factor of ten.

Sequence of FLAG-tagged WAVE2 stably expressed in A431 cells (Q9Y6W5 whole entry): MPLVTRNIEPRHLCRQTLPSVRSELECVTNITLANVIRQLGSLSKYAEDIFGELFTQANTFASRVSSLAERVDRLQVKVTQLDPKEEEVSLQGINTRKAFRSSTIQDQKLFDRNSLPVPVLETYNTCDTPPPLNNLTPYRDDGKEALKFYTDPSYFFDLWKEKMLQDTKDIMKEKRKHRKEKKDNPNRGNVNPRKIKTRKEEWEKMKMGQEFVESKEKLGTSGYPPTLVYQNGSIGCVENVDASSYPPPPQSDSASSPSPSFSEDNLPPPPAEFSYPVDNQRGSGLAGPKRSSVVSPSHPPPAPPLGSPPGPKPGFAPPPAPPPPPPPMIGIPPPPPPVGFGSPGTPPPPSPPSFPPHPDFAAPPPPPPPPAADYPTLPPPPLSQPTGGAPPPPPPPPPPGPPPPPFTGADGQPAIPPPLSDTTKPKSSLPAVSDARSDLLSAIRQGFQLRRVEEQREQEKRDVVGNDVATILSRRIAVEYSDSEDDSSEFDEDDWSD
Sequence of Recombinant full-length WAVE2 tagged with GST at its COOH terminus (Q9Y6W5 whole entry): as above

Turning to “SH3 domain of IRSp53 (aa 363–521) (from UniProt Q9UQB8 363-521) (domain or fragment)”, the pKd in test [1] is 5.24.
For the substance “IRSp53, endogenous in A431 cells (from UniProt Q9UQB8 1-552) (natural protein)”, the molar ratio of IRSp53 to WAVE2 in the purified complex in test [2] turned out to be 0.0005.

Source of the values: article PMC2063866.
